This is an account of results in patent US20220119506A1 (NOVOBIND LIVESTOCK THERAPEUTICS, published 2022).

Where a chain is given by its changes, count along the chain named. A value given as a limit tells only on which side of the number the result lay.

The labels stand for the following.
B1: NBX09005 (VHH)
VHH: QVQLQESGGGLVQAGGSLRLSCAASGLTFGSYAMGWFRQAPGKEREFVAAIMRYSSRTYYTDSVKGRFTISRDNAKNTVNLQMNNLEPEDTAIYYCAAAKRLSIVTLPRQYEFWGQGTQVTVSS
notes: on phage in the phage ELISA
B2: NBX09010 (VHH)
VHH: B1 VHH with E6Q, I104R, Q110E
notes: on phage in the phage ELISA
B3: NBX09009 (VHH)
VHH: B1 VHH with A50T, T91A, T106A
notes: on phage in the phage ELISA
B4: NBX0626 (VHH)
VHH: QVQLQQSGGGLVQAGGSLRLACAVSETTLATNAMAWYRQAQGKRREWVATISSVSSGGITNYSGSVKGRFTISRDNAKNTVFLQMNSLQPEDTAVYYCNGVRRGRSYWGQGTQVTVSS
notes: on phage in the phage ELISA
B5: NBX0858 (VHH)
VHH: QVQLQESGGGLVQAGGSLRLSCAASRRDFTTTTMAWYRQAPGKKRETVATVNTGGLTWYADFVKGRFTISRDDAVNTLLLQMDSLKPEDTAVYYCNAVLVRARGMWGQGTQVTVSS
notes: on phage in the phage ELISA
B6: NBX09006 (VHH)
VHH: QVQLQESGGGLVQPGGSLRLSCAASGSISGSYVMGWYRQAPGKQRELVATITSGGLTRYADSVKGRWTISRDNAKNTVYLQMNNLKLEDTAVYYCSARRIATTYWGQGTQVTVSS
notes: on phage in the phage ELISA
B7: NBX0852 (VHH)
VHH: QVQLQESGGGLVQAGGSLRLSCEASGRTFSSYRVGWFRQAPGKGREFVAAISATGGTTYYGDSVKGRFTISRDNAENTVSLQMNSLEPEDTAVYYCAATKGIVNYRVAGTYDAWGQGTQVTVSS
notes: on phage in the phage ELISA
B8: NBX0851 (VHH)
VHH: QVQLQQSGGGLVQPGGSLRLSCAASGRMFSGYVMGWYRQAPGKQRELVATITNGGLTNYADSVKGRFTISRDNAKNTVYLQMNSLKPDDTAVYYCNARRLWDIYWGQGTQVTVSS
notes: on phage in the phage ELISA
B9: NBX0857 (VHH)
VHH: B8 VHH with M28I, Y32H, A60G, I103T
notes: on phage in the phage ELISA
B10: NBX0865 (VHH)
VHH: QVQLQESGGGLVQAGGSLRLSCADSGRVFSTYVMGWYRQVPGKQRELVATITPGGLINYGDAVKGRFTISRDNAKNTVYLQMNSLKPADTAVYYCNARRLFAINWGGGTQVTVSS
notes: on phage in the phage ELISA
B11: NBX0640 (VHH)
VHH: QVQLQESGGGLVQPGGSLRLSCAASGSIFSGNVMGWYRQVPGKQRDLVATITGGGITRYADSVKGRFTISRDNAKNTVYLQMNSLKPEDTAVYYCHYRRIMQQYWGQGTQVTVSS
notes: on phage in the phage ELISA
B12: NBX0638 (VHH)
VHH: B11 VHH with P14A, H96N, Q107K, Q110L
notes: on phage in the phage ELISA
B13: NBX0861 (VHH)
VHH: QVQLQESGGGLVQAGGSLRLSCVASGSISNSHVMGWYRQAPGKERELVATLTSGGLTHFGDSVKGRFTISRDNAKNTIYLQMNSLKVEDTAVYYCNARRLLTSMWGQGTQVTVSP
notes: on phage in the phage ELISA
B14: NBX0827 (VHH)
VHH: QVQLQESGGGLVQAGGSLRLSCAASGSISSSFVMGWYRQAPGKQRELVATITSGGSTIYADSVKGRFTVSRDNAKNTVYLQMNSLKSEDTAVYYCHARRLWNTYWGQGTQVTVSS
notes: on phage in the phage ELISA
B15: NBX0831 (VHH)
VHH: B14 VHH with A23S, S27D, I28A, S29F, S31R, F32Y
notes: on phage in the phage ELISA
B16: NBX0854 (VHH)
VHH: QVQLQQSGGGLVQAGGSLRISCAASGSISSAYVMGWYRQAPGTQRELVATITSGGTTNYADSVKGRFTVSRDNAKNTVYLQMNSLKPDDTAVYYCNARRLWTTYWGQGTQVTVSS
notes: on phage in the phage ELISA
B17: NBX0855 (VHH)
VHH: QVQLQESGGGLVQPGESLRLSCAASTSGFSSYVMAWYRQAPGKQRELVASMTTGGLTNYADSVKGRFTISRDNAKNTVYLQMNSLKPEDTAAYYCNARRLWNAYWGQGTQVTVSS
notes: on phage in the phage ELISA
B18: NBX09011 (VHH)
VHH: B17 VHH
notes: on phage in the phage ELISA
B19: NBX09008 (VHH)
VHH: QVQLQESGGGLVQAGGSLRLSCSASGRTFSVRAMGWFRQAPGKERESVAAIHQNTRTTLYADSVKGRFAISRDGTKNTVYLQMNSLKPEDTAVYYCAASDDYGLQIKEVAYKYWGQGTQVTVAS
notes: on phage in the phage ELISA
B20: NBX0862 (VHH)
VHH: QVQLQESGGGLVQPGGSLRLSCSASGNRFSSSYVLGWYRQAPGKQRELVATVTSGGLTHYGDSVKGRFTISRDNAKNTVYLQMNSLKPEDTAVYYCNARILLTNYWGQGTQVTVSS
notes: on phage in the phage ELISA
B21: NBX0835 (VHH)
VHH: B20 VHH with L35M, Y60F, G61K, V114I
notes: on phage in the phage ELISA
B22: NBX0859 (VHH)
VHH: QVQLQESGGGLVQPGGSLRLSCSASGNRFSSSYVMGWYRQGPGKQRELVATVTSGGMTHYGDSVKGRFTISRDNAKNTVYLHMNSLKPEDTGVYYCFARRLWDIHWGQGTQVTVSS
notes: on phage in the phage ELISA
B23: NBX0843 (VHH)
VHH: B20 VHH with L35M, W37Y, S54T, H59N, G61A
notes: on phage in the phage ELISA
B24: NBX0404 (VHH)
VHH: QVQLQESGGGLVQAGDSLRLSCATSGRTFSRYTMGWFRQTPGKEREFVAAISWSGTYYTDSVKGRFTISVDNAKNTVYLQMNSLKPEDTAVYYCASGSRRLYYSSDIDYWGQGTQVTVSS
notes: on phage in the phage ELISA
B25: NBX0405 (VHH)
VHH: B24 VHH with V70R, A95V, S96V, D108N
notes: on phage in the phage ELISA
B26: NBX09007 (VHH)
VHH: QVQLQESGGGLVQPGGSLRLSCAASGSISSSYVMGWYRQAPGKQRDLVATITNAGNIHYGDSVKGRFTISRDNAKNTVSLQMNSLKPEDTAVYYCNARALWRAYWGQGTQVTVSS
notes: on phage in the phage ELISA
B27: NBX0614 (VHH)
VHH: QVQLQQSGGGLVQAGGSLRLSCAASGSSFRSNAIGWYRQFPGKSRELIAVITRSGSTQYADSVKGRFTASRDNAKNMIYLQMNNLKLEDTAVYYCHDETMKLISVKNDYWGQGSQVTVSS
notes: on phage in the phage ELISA
B28: NBX0627 (VHH)
VHH: B27 VHH with F40S, N84S, L87P, S104T, V105G, S114T
notes: on phage in the phage ELISA
B29: NBX0850 (VHH)
VHH: QVQLQESGGGLVQAGGSLRLSCAASGSISASYVMGWYRQTPGKQRELVATTTSGGTTRYADSVRGRFTISRDNARNTVYLQMNSLKPDDTAVYYCNARRLFLNYWGQGTQVTVSS
notes: on phage in the phage ELISA
B30: NBX09002 (VHH)
VHH: QVQLQESGGGLVQAGESLRLSCADSGRTSSTYDMAWFRQAPGKEREFVAAISRDGGRLSYADSVKGRFTISRDNAKNTLSLQMNSLRPEDTAVYYCAAFSIRGGLRPSYKYWGQGTQVTVSS
notes: on phage in the phage ELISA
B31: NBX0863 (VHH)
VHH: QVQLQQSGGGLAQAGGSLRLSCAASGRTFNWYTMAWFRQAPGKEREFVAAIRLGSTVYGDSVKARFTISRDNAKSTVSLQMNSLKPEDTALYYCAVGITGDGTIQGGPYQYWGQGTQVTVSS
notes: on phage in the phage ELISA
B32: NBX09003 (VHH)
VHH: QVQLQESGGGLVQPGGSLRLSCTASGSIFSLLNMGWYRQAPGKQRELVASITSRSYTNYADSVKGRFTISRDNTKNMVYLQMNSLKPEDTAVYYCNLNPADWGRLRNWGQGTQVTVSS
notes: on phage in the phage ELISA
B33: NBX0864 (VHH)
VHH: QVQLQESGGGLVQPGGSLRLSCAASGIISSAYVMGWYRQAPGKQRELVATITSGGTTRYADSVKGRITISRDNAKNTVLLQMNSLKPEDTAVYYCNARILLTNYWGQGTQVTVSS
notes: on phage in the phage ELISA
B34: NBX09001 (VHH)
VHH: QVQLQESGGGSVQPGGSLRLSCAASGSALSSNVLGWYRQAPGKQRELVATISSGGLTNYADSVKGRFTISRDNAKNTVYLQMNSLKPEDTAVYYCQSRRLFTVYWGQGTQVTVSS
notes: on phage in the phage ELISA

This assay concerns the target T1, PirB (Vibrio parahaemolyticus).
T1 construct: also called JHE-like toxin PirB-like
T1 chain: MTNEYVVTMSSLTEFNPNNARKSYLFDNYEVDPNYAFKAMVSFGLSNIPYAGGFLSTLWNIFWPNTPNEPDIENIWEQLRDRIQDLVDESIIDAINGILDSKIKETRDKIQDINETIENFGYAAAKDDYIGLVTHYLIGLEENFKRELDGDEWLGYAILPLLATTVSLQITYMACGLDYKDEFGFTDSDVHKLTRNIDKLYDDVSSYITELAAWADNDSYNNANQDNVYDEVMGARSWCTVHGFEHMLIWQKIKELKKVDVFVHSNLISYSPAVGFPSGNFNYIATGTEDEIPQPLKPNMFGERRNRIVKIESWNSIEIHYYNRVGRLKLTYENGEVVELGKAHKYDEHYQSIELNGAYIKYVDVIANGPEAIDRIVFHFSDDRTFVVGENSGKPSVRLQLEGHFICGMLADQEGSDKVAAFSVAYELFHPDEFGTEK
The assay can be described thus: phage ELISA, antigen-coated wells.
B1: the “binding above PBS-coated wells” value was at least 50%.

B2: the “binding above PBS-coated wells” value was at least 50%.

Turning to B3, the “binding above PBS-coated wells” value was at least 50%.

Consider B4, for which the “binding above PBS-coated wells” value is at least 50%.

Take B5: the “binding above PBS-coated wells” value is at least 50%.

In the case of B6, the “binding above PBS-coated wells” value was at least 50%.

As to B7, the “binding above PBS-coated wells” value is at least 50%.

Take B8: the “binding above PBS-coated wells” value is at least 50%.

As for B9, the “binding above PBS-coated wells” value was at least 50%.

Take B10: the “binding above PBS-coated wells” value was at least 50%.

Take B11: the “binding above PBS-coated wells” value was at least 50%.

Regarding B12, the “binding above PBS-coated wells” value was at least 50%.

Take B13: the “binding above PBS-coated wells” value is at least 50%.

Consider B14, for which the “binding above PBS-coated wells” value was at least 50%.

With B15, the “binding above PBS-coated wells” value is at least 50%.

Take B16: the “binding above PBS-coated wells” value is at least 50%.

B17: the “binding above PBS-coated wells” value was at least 50%.

For the molecule B18, the “binding above PBS-coated wells” value was at least 50%.

Take B19: the “binding above PBS-coated wells” value is at least 50%.

As to B20, the “binding above PBS-coated wells” value is at least 50%.

B21: the “binding above PBS-coated wells” value was at least 50%.

Consider B22, for which the “binding above PBS-coated wells” value is at least 50%.

For B23, the “binding above PBS-coated wells” value is at least 50%.

For B24, the “binding above PBS-coated wells” value was at least 50%.

Consider B25, for which the “binding above PBS-coated wells” value is at least 50%.

Turning to B26, the “binding above PBS-coated wells” value is at least 50%.

As for B27, the “binding above PBS-coated wells” value was at least 50%.

In the case of B28, the “binding above PBS-coated wells” value was at least 50%.

With B29, the “binding above PBS-coated wells” value is at least 50%.

Consider B30, for which the “binding above PBS-coated wells” value is at least 50%.

Take B31: the “binding above PBS-coated wells” value is at least 50%.

With B32, the “binding above PBS-coated wells” value is at least 50%.

For the molecule B33, the “binding above PBS-coated wells” value was at least 50%.

For B34, the “binding above PBS-coated wells” value is at least 50%.
